Assay results taken from publication PMC3740589.

Molecular target: Bcl-2 (UniProt P10415)
Assay: Flag-Beclin1 IP, Bcl-2 immunoblot
Conditions: reference: Flag-Beclin1 wild type; sites T119

- binding against the reference: stronger
Substance: Beclin1 (from UniProt Q14457) Flag-Beclin1 T119A
